# From article PMC3919625
# Molecular target: 2G12 IgG monomer (human)
# Assay: SEC
binder,measurement,value
soluble neonatal Fc receptor (FcRn) (receptor) chain 1: AEPRLPLMYHLAAVSDLSTGLPSFWATGWLGAQQYLTYNNLRQEADPCGAWIWENQVSWYWEKETTDLKSKEQLFLEAIRTLENQINGTFTLQGLLGCELAPDNSSLPTAVFALNGEEFMRFNPRTGNWSGEWPETDIVGNLWMKQPEAARKESEFLLTSCPERLLGHLERGRQNLEWKEPPSMRLKARPGNSGSSVLTCAAFSFYPPELKFRFLRNGLASGSGNCSTGPNGDGSFHAWSLLEVKRGDEHHYQCQVEHEGLAQPLTVDLDSPARSS chain 2: IQKTPQIQVYSRHPPENGKPNFLNCYVSQFHPPQIEIELLKNGKKIPNIEMSDLSFSKDWSFYILAHTEFTPTETDVYACRVKHVTLKEPKTVTWDRDM,stoichiometry N (FcRn per 2G12 monomer),2
